ECL signal and ECL signal/blank ratio data for four substances are collected here from patent US20120316071A1.

In experiment [1] the target is rHuman CD44/Fc Chimera, CF (R&D Systems Cat#3660-CD) (human) (UniProt P16070). Description: Multispot ECL (MSD), antigen spotted on plate, Fab 4.375 nM; blank spot 305.
The target in experiment [2] is rHuman ErbB2/Fc Chimera, CF (R&D Systems Cat#1129-ER) (human) (UniProt P04626). The description is as above.
For experiment [3], the target named is rHuman Notch-1/Fc Chimera, CF (R&D Systems Cat#3647-TK) (human) (UniProt P46531). Described as above.
Experiment [4] addresses rHuman IGF-1 sR, (IGF-1 sR), CF (R&D Systems Cat#391-GR) (human) (UniProt P08069). The description is as above.
In experiment [5] the target is rHuman P-Cadherin/Fc Chimera, CF (R&D Systems Cat#861-PC) (human) (UniProt P22223). Described as above.
Experiment [6] concerns the target rHuman HGF R/c-MET/Fc Chimera, CF (R&D Systems Cat#358-MT/CF) (human) (UniProt P08581). The experiment is described as above.
The target of experiment [7] is rHuman CD44/Fc Chimera, CF (R&D Systems Cat#3660-CD) (human) (UniProt P16070). Description: Multispot ECL (MSD), antigen spotted on plate, Fab 70 nM; blank spot 635.
The target in experiment [8] is rHuman ErbB2/Fc Chimera, CF (R&D Systems Cat#1129-ER) (human) (UniProt P04626). The description is as above.
Experiment [9] has as its target rHuman Notch-1/Fc Chimera, CF (R&D Systems Cat#3647-TK) (human) (UniProt P46531). The description is as above.
In experiment [10] the target is rHuman IGF-1 sR, (IGF-1 sR), CF (R&D Systems Cat#391-GR) (human) (UniProt P08069). Described as above.
Experiment [11] concerns the target rHuman P-Cadherin/Fc Chimera, CF (R&D Systems Cat#861-PC) (human) (UniProt P22223). The description is as above.
For experiment [12], the target named is rHuman HGF R/c-MET/Fc Chimera, CF (R&D Systems Cat#358-MT/CF) (human) (UniProt P08581). Described as above.
Experiment [13] deals with rHuman CD44/Fc Chimera, CF (R&D Systems Cat#3660-CD) (human) (UniProt P16070). The experiment can be described thus: Multispot ECL (MSD), antigen spotted on plate, Fab 17.5 nM; blank spot 304.
Experiment [14] addresses rHuman ErbB2/Fc Chimera, CF (R&D Systems Cat#1129-ER) (human) (UniProt P04626). The description is as above.
In experiment [15] the target is rHuman Notch-1/Fc Chimera, CF (R&D Systems Cat#3647-TK) (human) (UniProt P46531). The experiment is described as above.
Experiment [16] deals with rHuman IGF-1 sR, (IGF-1 sR), CF (R&D Systems Cat#391-GR) (human) (UniProt P08069). The experiment is described as above.
Experiment [17] addresses rHuman P-Cadherin/Fc Chimera, CF (R&D Systems Cat#861-PC) (human) (UniProt P22223). The experiment is described as above.
Experiment [18] concerns the target rHuman HGF R/c-MET/Fc Chimera, CF (R&D Systems Cat#358-MT/CF) (human) (UniProt P08581). Described as above.
Experiment [19] has as its target rHuman CD44/Fc Chimera, CF (R&D Systems Cat#3660-CD) (human) (UniProt P16070). The experiment can be described thus: Multispot ECL (MSD), antigen spotted on plate, Fab 280 nM; blank spot 1691.
The target in experiment [20] is rHuman ErbB2/Fc Chimera, CF (R&D Systems Cat#1129-ER) (human) (UniProt P04626). Described as above.
In experiment [21] the target is rHuman Notch-1/Fc Chimera, CF (R&D Systems Cat#3647-TK) (human) (UniProt P46531). The description is as above.
The target in experiment [22] is rHuman IGF-1 sR, (IGF-1 sR), CF (R&D Systems Cat#391-GR) (human) (UniProt P08069). Described as above.
The target in experiment [23] is rHuman P-Cadherin/Fc Chimera, CF (R&D Systems Cat#861-PC) (human) (UniProt P22223). The experiment is described as above.
Experiment [24] has as its target rHuman HGF R/c-MET/Fc Chimera, CF (R&D Systems Cat#358-MT/CF) (human) (UniProt P08581). The description is as above.
Experiment [25] deals with rHuman EGF R/Fc Chimera, CF (R&D Systems Cat#344-ER) (human) (UniProt P00533). The experiment can be described thus: MSD Multispot ECL, antigen spotted on plate, Fab 920 nM; blank spot 4082.
For experiment [26] the target is unchanged. The experiment can be described thus: MSD Multispot ECL, antigen spotted on plate, Fab 230 nM; blank spot 1656.
For experiment [27] the target is unchanged. The experiment can be described thus: MSD Multispot ECL, antigen spotted on plate, Fab 14.375 nM; blank spot 738.
Experiment [28] shares this target. The experiment can be described thus: MSD Multispot ECL, antigen spotted on plate, Fab 57.5 nM; blank spot 954.
Experiment [29] concerns the target rHuman ErbB2/Fc Chimera, CF (R&D Systems Cat#1129-ER) (human) (UniProt P04626). The experiment can be described thus: Multispot ECL (MSD) assay, antigen spotted on plate, Fab at 0.096 µM; blank spot 917.
For experiment [30] the target is unchanged. The experiment can be described thus: Multispot ECL (MSD) assay, antigen spotted on plate, Fab at […]; blank spot 2945.
The target is the same in experiment [31]. Description: Multispot ECL (MSD) assay, antigen spotted on plate, Fab at […]; blank spot 751.
Experiment [32] concerns the target rHuman CD44/Fc Chimera, CF (R&D Systems Cat#3660-CD) (human) (UniProt P16070). The experiment can be described thus: ECL multispot (MSD), antigen spotted, Fab in solution.
In experiment [33] the target is rHuman IGF-1 sR, CF (R&D Systems Cat#391-GR) (human) (UniProt P08069). The description is as above.
In experiment [34] the target is rHuman Erythropoietin R/Fc Chimera, CF (R&D Systems Cat#963-ER) (human) (UniProt P19235). Described as above.
For experiment [35], the target named is rHuman EGF R/Fc Chimera, CF (R&D Systems Cat#344-ER) (human) (UniProt P00533). The description is as above.
Experiment [36] deals with rHuman ErbB2/Fc Chimera, CF (R&D Systems Cat#1129-ER) (human) (UniProt P04626). Described as above.
Experiment [37] concerns the target rHuman Notch-1/Fc Chimera, CF (R&D Systems Cat#3647-TK) (human) (UniProt P46531). The experiment is described as above.
In experiment [38] the target is Recombinant Human DLL4 (R&D Systems Cat#1506-D4/CF) (human) (UniProt Q9NR61). Described as above.
The target of experiment [39] is rHuman P-Cadherin/Fc Chimera, CF (R&D Systems Cat#861-PC) (human) (UniProt P22223). Described as above.
Experiment [40] deals with rHuman HGF R/c-MET/Fc Chimera, CF (R&D Systems Cat#358-MT/CF) (human) (UniProt P08581). Described as above.

Regarding “Fab VH1-46_IGHD2-15*01_IGHJ2*01 & L12_IGKJ1*01”, the ECL signal in experiment [1] was found to be 424; in [2], 384; in [3] it was 480; in experiment [4] it was 369; in experiment [5], 469; in [6], 193. In addition, the ECL signal in [7] turned out to be 1370; in experiment [8], 1360; in [9] it was 1490; in experiment [10], 1320; in experiment [11], 1820; in experiment [12] it was 1290. Moreover, the ECL signal was found to be 664 in [13]; 541 in experiment [14]; 680 in [15]; 626 in experiment [16]; 949 in experiment [17]; 565 in [18]. Further, the ECL signal in experiment [19] came to 4070; in [20], 3950; in experiment [21] it was 4380; in experiment [22] it was 3530; in experiment [23], 5400; in [24], 3560.

Regarding “Fab VH1-46_IGHD3-10*01_IGHJ4*01 & L12_IGKJ1*01”, the ECL signal in experiment [25] was found to be 13400; in experiment [26], 5720; in experiment [27] it was 2670; in experiment [28], 3860.

For the substance “Fab VH1-46_IGHD6-13*01_IGHJ4*01 & A27_IGKJ1*01”, the ECL signal in experiment [29] came out at 3360; in experiment [30] it was 11300; in [31] it was 2310.

For “Fab VH3-23_IGHD3-10*01>3_IGHJ6*01 Y112V & O12_IGKJ1*01”, the ECL signal/blank ratio was 1 in experiment [32]; 0.8 in experiment [33]; 4.3 in experiment [34]; 1.2 in experiment [35]; 1.6 in experiment [36]; 1.4 in experiment [37]. The ECL signal/blank ratio is 2 in [38], 9.8 in [39] and 1.3 in experiment [40].
